Source: patent US20220025381A1
Blank lines part the entries; values can stand above or below the binder they belong to.

How the values were obtained:
Assay in all cases: cell-based or functional assay
[1] = molecular target: T1, CD376 PV1-RfxCas13d-566C-NLS-BGHpA
T1 sequence: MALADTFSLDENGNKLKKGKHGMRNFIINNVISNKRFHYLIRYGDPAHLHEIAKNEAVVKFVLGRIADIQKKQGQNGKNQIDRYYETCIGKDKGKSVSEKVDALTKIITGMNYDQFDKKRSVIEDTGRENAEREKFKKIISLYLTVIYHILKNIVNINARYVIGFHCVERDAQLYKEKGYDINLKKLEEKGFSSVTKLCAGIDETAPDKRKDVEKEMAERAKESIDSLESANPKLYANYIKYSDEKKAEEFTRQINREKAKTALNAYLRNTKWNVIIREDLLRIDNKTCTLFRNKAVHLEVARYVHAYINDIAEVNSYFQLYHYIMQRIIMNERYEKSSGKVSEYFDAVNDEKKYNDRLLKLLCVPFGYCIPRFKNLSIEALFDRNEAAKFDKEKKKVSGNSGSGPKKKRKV

[2] = molecular target: T2, CD400 PV1-GAI-L1-RfxCas13d-264C-NLS-BGHpA
T2 sequence: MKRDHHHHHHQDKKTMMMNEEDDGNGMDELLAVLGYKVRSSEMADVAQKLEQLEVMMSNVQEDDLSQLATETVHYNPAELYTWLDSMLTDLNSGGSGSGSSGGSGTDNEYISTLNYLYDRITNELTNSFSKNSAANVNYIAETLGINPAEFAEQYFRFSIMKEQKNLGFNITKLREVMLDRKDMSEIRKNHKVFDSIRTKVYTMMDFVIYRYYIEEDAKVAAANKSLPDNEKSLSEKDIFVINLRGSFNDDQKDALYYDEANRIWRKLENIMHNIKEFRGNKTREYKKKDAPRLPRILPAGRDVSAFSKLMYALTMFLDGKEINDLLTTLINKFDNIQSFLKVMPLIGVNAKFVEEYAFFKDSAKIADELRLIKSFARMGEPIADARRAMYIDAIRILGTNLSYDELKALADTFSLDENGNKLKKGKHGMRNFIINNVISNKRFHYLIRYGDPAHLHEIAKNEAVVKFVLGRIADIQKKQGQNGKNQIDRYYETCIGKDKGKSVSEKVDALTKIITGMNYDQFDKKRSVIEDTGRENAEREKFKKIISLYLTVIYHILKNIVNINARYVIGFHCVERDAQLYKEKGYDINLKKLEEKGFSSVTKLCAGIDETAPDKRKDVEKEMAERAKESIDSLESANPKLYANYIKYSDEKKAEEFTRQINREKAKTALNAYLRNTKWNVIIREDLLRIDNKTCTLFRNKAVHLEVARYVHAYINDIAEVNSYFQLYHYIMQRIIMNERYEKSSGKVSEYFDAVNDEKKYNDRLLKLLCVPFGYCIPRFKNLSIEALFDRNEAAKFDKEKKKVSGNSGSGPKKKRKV

[3] = molecular target: T3, CD380 PV1-RfxCas13d-656C-NLS-BGHpA
T3 sequence: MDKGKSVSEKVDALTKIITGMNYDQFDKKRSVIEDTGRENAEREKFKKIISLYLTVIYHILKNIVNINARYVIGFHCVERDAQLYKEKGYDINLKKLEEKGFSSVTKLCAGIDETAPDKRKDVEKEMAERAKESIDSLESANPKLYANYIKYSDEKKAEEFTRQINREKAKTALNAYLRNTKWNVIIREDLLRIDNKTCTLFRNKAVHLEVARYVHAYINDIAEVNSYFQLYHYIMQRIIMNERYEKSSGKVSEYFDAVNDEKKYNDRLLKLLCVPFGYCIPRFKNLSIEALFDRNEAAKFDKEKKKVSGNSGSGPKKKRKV

- gRNA induced knockdown of mCherry without CID domains [1]: < 80%
B1: CD375 PV1-RfxCas13d-N565-NLS-BGHpA (protein)
chain: MIEKKKSFAKGMGVKSTLVSGSKVYMTTFAEGSDARLEKIVEGDSIRSVNEGEAFSAEMADKNAGYKIGNAKFSHPKGYAVVANNPLYTGPVQQDMLGLKETLEKRYFGESADGNDNICIQVIHNILDIEKILAEYITNAAYAVNNISGLDKDIIGFGKFSTVYTYDEFKDPEHHRAAFNNNDKLINAIKAQYDEFDNFLDNPRLGYFGQAFFSKEGRNYIINYGNECYDILALLSGLRHWVVHNNEEESRISRTWLYNLDKNLDNEYISTLNYLYDRITNELTNSFSKNSAANVNYIAETLGINPAEFAEQYFRFSIMKEQKNLGFNITKLREVMLDRKDMSEIRKNHKVFDSIRTKVYTMMDFVIYRYYIEEDAKVAAANKSLPDNEKSLSEKDIFVINLRGSFNDDQKDALYYDEANRIWRKLENIMHNIKEFRGNKTREYKKKDAPRLPRILPAGRDVSAFSKLMYALTMFLDGKEINDLLTTLINKFDNIQSFLKVMPLIGVNAKFVEEYAFFKDSAKIADELRLIKSFARMGEPIADARRAMYIDAIRILGTNLSYDELKPKKKRKV

- knockdown efficiency of mCherry with gibberellin and gRNA [2]: > 60%
B2: CD399 PV1-RfxCas13d-N263-L1-GID-NLS-BGHpA (protein)
chain: MIEKKKSFAKGMGVKSTLVSGSKVYMTTFAEGSDARLEKIVEGDSIRSVNEGEAFSAEMADKNAGYKIGNAKFSHPKGYAVVANNPLYTGPVQQDMLGLKETLEKRYFGESADGNDNICIQVIHNILDIEKILAEYITNAAYAVNNISGLDKDIIGFGKFSTVYTYDEFKDPEHHRAAFNNNDKLINAIKAQYDEFDNFLDNPRLGYFGQAFFSKEGRNYIINYGNECYDILALLSGLRHWVVHNNEEESRISRTWLYNLDKNLSGGSGSGSSGGSGTMAASDEVNLIESRTVVPLNTWVLISNFKVAYNILRRPDGTFNRHLAEYLDRKVTANANPVDGVFSFDVLIDRRINLLSRVYRPAYADQEQPPSILDLEKPVDGDIVPVILFFHGGSFAHSSANSAIYDTLCRRLVGLCKCVVVSVNYRRAPENPYPCAYDDGWIALNWVNSRSWLKSKKDSKVHIFLAGDSSGGNIAHNVALRAGESGIDVLGNILLNPMFGGNERTESEKSLDGKYFVTVRDRDWYWKAFLPEGEDREHPACNPFSPRGKSLEGVSFPKSLVVVAGLDLIRDWQLAYAEGLKKAGQEVKLMHLEKATVGFYLLPNNNHFHNVMDEISAFVNAECPKKKRKV

- gRNA induced knockdown of mCherry without CID domains [3]: < 80%
B3: CD379 PV1-RfxCas13d-N655-NLS-BGHpA (protein)
chain: MIEKKKSFAKGMGVKSTLVSGSKVYMTTFAEGSDARLEKIVEGDSIRSVNEGEAFSAEMADKNAGYKIGNAKFSHPKGYAVVANNPLYTGPVQQDMLGLKETLEKRYFGESADGNDNICIQVIHNILDIEKILAEYITNAAYAVNNISGLDKDIIGFGKFSTVYTYDEFKDPEHHRAAFNNNDKLINAIKAQYDEFDNFLDNPRLGYFGQAFFSKEGRNYIINYGNECYDILALLSGLRHWVVHNNEEESRISRTWLYNLDKNLDNEYISTLNYLYDRITNELTNSFSKNSAANVNYIAETLGINPAEFAEQYFRFSIMKEQKNLGFNITKLREVMLDRKDMSEIRKNHKVFDSIRTKVYTMMDFVIYRYYIEEDAKVAAANKSLPDNEKSLSEKDIFVINLRGSFNDDQKDALYYDEANRIWRKLENIMHNIKEFRGNKTREYKKKDAPRLPRILPAGRDVSAFSKLMYALTMFLDGKEINDLLTTLINKFDNIQSFLKVMPLIGVNAKFVEEYAFFKDSAKIADELRLIKSFARMGEPIADARRAMYIDAIRILGTNLSYDELKALADTFSLDENGNKLKKGKHGMRNFIINNVISNKRFHYLIRYGDPAHLHEIAKNEAVVKFVLGRIADIQKKQGQNGKNQIDRYYETCIGKPKKKRKV
